Laboratory results as given in the supplement of paper PMC10567573.

B1: RSPH3 (parent)
chain: FIPAKTGKDVATQILEGELFDFDL

Variants of: B1
Assay: protein stability index of a GFP-peptide fusion (GPS, HEK-293T) (PSI 1-6); higher = more stable
Conditions: c terminus: a fixed tail appended
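Also: lentivirally expressed fusions sorted by FACS into six bins by GFP to DsRed ratio, PSI derived from sequencing read proportions per bin multiplied by bin number.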

Variant | protein stability index
FIPAKTGKDVATQILEGELFDFDK | 2.79
FIPPKTGKDVATQILEGELFDFDL | 1.55
FIPAKTGKDVATQILEGLLFDFDL | 2.42
FIPAKTGKDRATQILEGELFDFDL | 1.58
FIPAKTGDDVATQILEGELFDFDL | 2.22
FIQAKTGKDVATQILEGELFDFDL | 2.5
FIPAKTGKDVATQIKEGELFDFDL | 2.07
FIPAKTGKDVAPQILEGELFDFDL | 1.8
FIPAKIGKDVATQILEGELFDFDL | 2.53
GIPAKTGKDVATQILEGELFDFDL | 4.84
FIPAKTNKDVATQILEGELFDFDL | 1.85
FIPAKTGIDVATQILEGELFDFDL | 1.74
FIPAPTGKDVATQILEGELFDFDL | 2.22
FIPAKTGKDVRTQILEGELFDFDL | 2.2
FIPAKTGKDVATQILEGELFDFFL | 1.34
FIPAKTGQDVATQILEGELFDFDL | 2.1
FIPAKTGKDVAYQILEGELFDFDL | 1.92
FIPAKTGKDVATQILEGELFMFDL | 2.98
FIPAKTGKDVATQILEGELFDFWL | 2.51
FIPLKTGKDVATQILEGELFDFDL | 2.09
FIPAKTGKDVATQILEGELFVFDL | 1.66
FISAKTGKDVATQILEGELFDFDL | 2.56
FIPAKTGKDVATQILEGEPFDFDL | 1.98
FIPAKTGKDVATQILEGELDDFDL | 2.92

Variant | protein stability index
FIPAKTGKDVATQILEGELFIFDL | 2.72
FIPAKTGKDVATQILEGEEFDFDL | 2.2
FIPAFTGKDVATQILEGELFDFDL | 2.46
FIPQKTGKDVATQILEGELFDFDL | 2.05
FIPAKTGKDVATQILEGELFDGDL | 2.81
FIPNKTGKDVATQILEGELFDFDL | 2.35
FIPAKTGKDVATQILEGELFDFDW | 3.71
FIPWKTGKDVATQILEGELFDFDL | 1.6
FIPAKTGKDVAQQILEGELFDFDL | 1.92
FIDAKTGKDVATQILEGELFDFDL | 2.63
FIYAKTGKDVATQILEGELFDFDL | 1.52
FIPAKTGKDVATQILEGELFDFDF | 1.95
FIPAKTGKDVATQILEGEKFDFDL | 2.21
FIPAKTGMDVATQILEGELFDFDL | 1.63
FIPAKTGKDVATTILEGELFDFDL | 1.99
FIPAKTGKDVATQILEGELFYFDL | 2.78
FWPAKTGKDVATQILEGELFDFDL | 2.3
FIIAKTGKDVATQILEGELFDFDL | 1.97
SIPAKTGKDVATQILEGELFDFDL | 4.66
FIPAKTGKDVATQILEGELFDFDV | 1.85
FIPAKTGKDVATQILVGELFDFDL | 2.04
FIPAKTGKDVAVQILEGELFDFDL | 2.98
FIPAKTGKDVATQILEGELLDFDL | 2.25
FIPAKRGKDVATQILEGELFDFDL | 1.71

Variant | protein stability index
FIPAKTGKDVATQILCGELFDFDL | 2.32
FIPAKTGKDQATQILEGELFDFDL | 1.82
FIPAKWGKDVATQILEGELFDFDL | 1.9
FIPAKTGKDVATQILEGHLFDFDL | 2
FIPAKTGKDVATQILFGELFDFDL | 3.82
FIPAKTGKDVATQIHEGELFDFDL | 2.12
FIPAKTGKDVATQILEGELFFFDL | 2.45
FIPAKTGKGVATQILEGELFDFDL | 2.23
FIPAKTFKDVATQILEGELFDFDL | 1.45
FIPMKTGKDVATQILEGELFDFDL | 2.74
FIPAKTGKLVATQILEGELFDFDL | 2.77
FIEAKTGKDVATQILEGELFDFDL | 2.83
FIPAKTGKDVATLILEGELFDFDL | 2.38
FIPAKTGKDVATQIAEGELFDFDL | 1.74
FIPAKTGKDVATQKLEGELFDFDL | 1.72
FIPAKTGKDVATQIEEGELFDFDL | 2.79
FIPAKTGKDVYTQILEGELFDFDL | 4.25
FIPAKYGKDVATQILEGELFDFDL | 1.64
FIPAKTGKDVATQILEGEDFDFDL | 2.59
FIPAKTGKDVATQILEGELFDTDL | 2.67
FIPAKTGKDVANQILEGELFDFDL | 1.89
FIPAKTGKDVADQILEGELFDFDL | 1.56
FIPAKTTKDVATQILEGELFDFDL | 1.77
YIPAKTGKDVATQILEGELFDFDL | 1.9

Variant | protein stability index
FIPAKTGKDVATSILEGELFDFDL | 2.32
FIPAKTGKDVATQTLEGELFDFDL | 2.79
FIPAKTGKDVHTQILEGELFDFDL | 1.8
FIPAKTGKDVATQILEGELFDYDL | 2.12
FICAKTGKDVATQILEGELFDFDL | 1.72
PIPAKTGKDVATQILEGELFDFDL | 4.33
FIPAKTGKDEATQILEGELFDFDL | 2.52
FIHAKTGKDVATQILEGELFDFDL | 1.85
FIPAKTGKDVATQILEWELFDFDL | 1.95
FIPAKTGKDVATQILEGEMFDFDL | 1.83
FIPAKTGFDVATQILEGELFDFDL | 1.32
FIPAKTGKDIATQILEGELFDFDL | 2.95
FIPAKTGKDVATQALEGELFDFDL | 2.07
FIPAKTGKDVATQILEGELFHFDL | 1.79
FIPAKTGKDVATQILEGELFDFVL | 1.59
FIPAKTGKDVATQILEGELFDKDL | 2.74
FIWAKTGKDVATQILEGELFDFDL | 2.43
FIPAKTGKDVATQILEGELFDFNL | 1.84
FIPAKEGKDVATQILEGELFDFDL | 2.43
FIPAKTGKDVATQILEGELFDHDL | 2.56
EIPAKTGKDVATQILEGELFDFDL | 5.01
FIPAKTGKDVATQILEGELFDFDP | 2.47
FIPAGTGKDVATQILEGELFDFDL | 1.97
FIPAKTGKDVATPILEGELFDFDL | 1.95

Variant | protein stability index
FIPAKTGKDVATQILAGELFDFDL | 1.46
FIPAKTGKDVATQINEGELFDFDL | 2
FIPAKTKKDVATQILEGELFDFDL | 2.03
FIPAKTGKDHATQILEGELFDFDL | 1.82
FIPAKTGKDVATQILEGELFDFAL | 2.12
FIPAKTGEDVATQILEGELFDFDL | 2.43
FIPAKTGKDVATQILIGELFDFDL | 2.24
FIPAKTGKDVATQILEGDLFDFDL | 2.04
FIPAKTRKDVATQILEGELFDFDL | 1.82
FIPAKTGKDVATQILEGALFDFDL | 1.74
FIPAKTGKHVATQILEGELFDFDL | 2.03
FIPAKAGKDVATQILEGELFDFDL | 2
FIPAKTGKDVATQILRGELFDFDL | 2.46
FIPAKTGKDVATQIREGELFDFDL | 2.75
FIPAKTGKDVATQILERELFDFDL | 2.15
FIPAKTGKDVATQILEGELFDFYL | 2.24
FIPAKVGKDVATQILEGELFDFDL | 1.6
FIPAKTSKDVATQILEGELFDFDL | 2.08
FIPAKTGKDVATQILEGEAFDFDL | 2.2
FIPAKTGKDVATRILEGELFDFDL | 1.58
FIPAKTGKDVATQILEGELFDQDL | 2.84
FIPAKTGKDVATQILEGELFLFDL | 3
FIPAKTGKDVATQIGEGELFDFDL | 1.89
FIPAKTGKDVATQILEGCLFDFDL | 2.17

Variant | protein stability index
FIPAKTGKDVATQILEGELFDFKL | 2.12
FIPIKTGKDVATQILEGELFDFDL | 1.62
FIPAKTGKDVATQFLEGELFDFDL | 1.74
FIPAKTGKDVATQILEGEYFDFDL | 2.02
FIPAKTGKDVATQILEGELFCFDL | 2.71
FIPAKTGKDVPTQILEGELFDFDL | 1.78
FIPAKTGKDVATQQLEGELFDFDL | 1.79
FIPAKTGKDVATQILTGELFDFDL | 1.63
FIPAKTGKDVATQWLEGELFDFDL | 2.71
FIPAKHGKDVATQILEGELFDFDL | 1.82
FIPAKTGKDVATQIWEGELFDFDL | 2.75
FIPKKTGKDVATQILEGELFDFDL | 1.9
FIPAKTGKDVATQCLEGELFDFDL | 1.99
FFPAKTGKDVATQILEGELFDFDL | 2.86
FIPAKTGKDVATQILEGELFGFDL | 2.24
FKPAKTGKDVATQILEGELFDFDL | 3.86
FIPAKTGKDVATQIMEGELFDFDL | 2.03
FIPAKTGKDVATQILEQELFDFDL | 2.26
FIPACTGKDVATQILEGELFDFDL | 1.87
FIPAETGKDVATQILEGELFDFDL | 2.95
FIPAKTGKWVATQILEGELFDFDL | 3.31
FIPAKTGKDVATQILENELFDFDL | 1.32
FIPAKTGKDVATQILEGELFDFLL | 1.98
FIPAKTGKDVATQILEGVLFDFDL | 2.46

Variant | protein stability index
FPPAKTGKDVATQILEGELFDFDL | 3.04
FIPAKFGKDVATQILEGELFDFDL | 2.08
FIPAKTGKRVATQILEGELFDFDL | 2.06
FIPAHTGKDVATQILEGELFDFDL | 1.92
FIPAKTGKDVATQILEGELFDFIL | 1.24
LIPAKTGKDVATQILEGELFDFDL | 3.56
FMPAKTGKDVATQILEGELFDFDL | 3.26
FIPAKTGKDVATQILETELFDFDL | 2.11
FIPAKTGPDVATQILEGELFDFDL | 2.15
FIPAKTGKDVATQILEGELFDWDL | 1.91
FQPAKTGKDVATQILEGELFDFDL | 3.04
FIPAKTGKDVATCILEGELFDFDL | 2.9
FIPAKTGKDVATQILEGELFDIDL | 1.68
FIPAKTGKDVATQILEGQLFDFDL | 2.06
FIPAKTGKDVATQILGGELFDFDL | 2.34
FIPADTGKDVATQILEGELFDFDL | 2.66
FIPAKTGKDNATQILEGELFDFDL | 2.12
FIPAKTGKDVATQILEGELFDPDL | 1.82
NIPAKTGKDVATQILEGELFDFDL | 4.98
FIPAKQGKDVATQILEGELFDFDL | 1.64
FIPAKTGKDVATQILEGESFDFDL | 1.98
FIPAKTGKDVATQILECELFDFDL | 2.54
FIPAKTGKDVATQIYEGELFDFDL | 1.76
FIPDKTGKDVATQILEGELFDFDL | 2.25

Variant | protein stability index
FIPAKTGKDVATQILEGELFDFDC | 2.36
FIPAKTGKDMATQILEGELFDFDL | 1.58
FIPAKTGKDVATQILEGELFDFPL | 2.08
FIPAKTGKDVQTQILEGELFDFDL | 1.73
FIPAKTGKDVCTQILEGELFDFDL | 2
FIPAKDGKDVATQILEGELFDFDL | 2.46
FIPAKTGKDVATQILEGELFDFSL | 2
FIPAKTGKDVATQILEGKLFDFDL | 2.2
FIPAKTGKDVMTQILEGELFDFDL | 1.53
FIPAMTGKDVATQILEGELFDFDL | 1.87
FIPAKTGLDVATQILEGELFDFDL | 2.44
FIPAKTGKDVATQITEGELFDFDL | 1.66
FIPAKTGKDVARQILEGELFDFDL | 2.55
FIPAKTGKDVAKQILEGELFDFDL | 1.49
FDPAKTGKDVATQILEGELFDFDL | 4.39
FIPAKTGKDVATNILEGELFDFDL | 1.97
FIPAKTGKDVATQPLEGELFDFDL | 2.21
FIPAKTGKDVATQILEGELFDDDL | 3.7
FIPAKTGKDVATQGLEGELFDFDL | 1.49
FIPAKTGKDVATQILEGELFDMDL | 2.54
